According to patent US20160319012A1 (Genentech, published 2016):

Molecular target: T1, hamster phospholipase B-like 2 (PLBL2) (hamster, UniProt G3I6T1 38-585, Used as two conjugates: one with biotin (Biotin-PLBL2) and one with digoxigenin (DIG-PLBL2). Conjugation sites are not stated. Natural mannose-6-phosphate glycans are not carried by the letters.)
T1 construct: Purified hamster PLBL2; also called PLB2; PLBD2
T1 sequence: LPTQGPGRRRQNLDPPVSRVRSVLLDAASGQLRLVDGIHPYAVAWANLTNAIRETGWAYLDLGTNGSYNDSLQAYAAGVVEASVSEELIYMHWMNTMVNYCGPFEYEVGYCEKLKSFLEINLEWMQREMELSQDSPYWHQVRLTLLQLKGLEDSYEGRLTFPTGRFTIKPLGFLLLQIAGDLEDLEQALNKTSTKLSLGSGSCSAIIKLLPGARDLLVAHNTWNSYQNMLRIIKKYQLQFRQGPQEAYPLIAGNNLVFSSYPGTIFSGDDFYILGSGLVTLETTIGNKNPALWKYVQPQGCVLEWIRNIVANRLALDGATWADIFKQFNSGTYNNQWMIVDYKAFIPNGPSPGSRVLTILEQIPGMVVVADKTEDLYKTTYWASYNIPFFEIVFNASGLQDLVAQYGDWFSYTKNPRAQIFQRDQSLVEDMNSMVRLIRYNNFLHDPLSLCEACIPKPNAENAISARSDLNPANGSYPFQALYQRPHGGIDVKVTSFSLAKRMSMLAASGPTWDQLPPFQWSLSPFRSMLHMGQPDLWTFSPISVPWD
Test: bridging ELISA with Biotin-PLBL2 and DIG-PLBL2, drug tolerance experiment in serum
Experimental: The antibody bridging ELISA assay that was developed and validated to detect antibodies to hamster PLBL2 in human serum used two conjugated reagents to capture all isotypes of antibodies directed against hamster PLBL2: purified hamster PLBL2 conjugated to biotin (Biotin-PLBL2) and purified hamster PLBL2 conjugated to digoxigenin (DIG-PLBL2). Production and purification of hamster PLBL2 was carried out using standard methods known to one skilled in the art is also described in U.S. Provisional Application Nos. 61/877,503 and 61/991,228 and conjugation to biotin or DIG were carried out using standard methods known to one skilled in the art. In this semi-homogenous antibody bridging ELISA assay, 75 μL/well of conjugated solution in assay diluent (PBS/0.5% BSA/0.05% Polysorbate 20/0.05% ProClin 300, pH 7.4±0.1) containing 3 μg/mL of each Biotin-PLBL2 and DIG-PLBL2 were co-incubated overnight (16-24 hours) at ambient temperature with 75 μL/well of 1:20 diluted serum samples and controls in assay diluent in polypropylene micronic tubes (National Scientific Supply Co.; Claremont, C A). […] The plates were read at 450 nm for detection absorbance and 630 nm for reference absorbance.

B1: lebrikizumab (antibody, human IgG4 S228P, kappa, V domains shown)
VH: VTLRESGPALVKPTQTLTLTCTVSGFSLSAYSVNWIRQPPGKALEWLAMIWGDGKIVYNSALKSRLTISKDTSKNQVVLTMTNMDPVDTATYYCAGDGYYPYAMDNWGQGSLVTVSS
VL: DIVMTQSPDSLSVSLGERATINCRASKSVDSYGNSFMHWYQQKPGQPPKLLIYLASNLESGVPDRFSGSGSGTDFTLTISSLQAEDVAVYYCQQNNEDPRTFGGGTKVEIKR
notes: Humanized IgG4; also called anti-IL13 MAb; anti-IL13 monoclonal antibody
- binding result: no binding (tested: 50 µg/mL)
